Source: publication PMC8884700, “Selection and Modelling of a New Single-Domain Intrabody Against TDP-43” (Frontiers in Molecular Biosciences, 2021)
Substitutions are numbered along the chain they refer to. Each block holds one binder with its values, some of them ahead of it.

Key:
[1] = biological target: T1, LexA fragment of RRMs (160-208) (Homo sapiens (species of cDNA not …, UniProt Q13148)); test: two-hybrid; IACT / in vivo epitope mapping in L40 yeast; LexA-fused bait, VP16-fused VHH prey; growth on SD-WHL (HIS3); liquid beta-gal (LacZ) for the full-length bait; details: partners not purified
T1 construct: TDP-43, residues 160-208, containing the linker between RRM1 and RRM2; also called RRMs bait; source: yeast two-hybrid fusion (L40 yeast)
T1 chain: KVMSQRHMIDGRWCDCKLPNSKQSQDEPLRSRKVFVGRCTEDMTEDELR

[2] = biological target: T2, LexA-N-term + RRM1-2 (residues 1-258) (Homo sapiens (species of cDNA not …, UniProt Q13148)); test: as above; details: partners not purified
T2 construct: TDP-43, residues 1-258 (N-terminus plus RRM1 and RRM2); also called LexA- N-Term + RRM1-2 (1-258); N-terminal half of TDP-43; source: yeast two-hybrid fusion (L40 yeast)
T2 sequence (Q13148 1-258): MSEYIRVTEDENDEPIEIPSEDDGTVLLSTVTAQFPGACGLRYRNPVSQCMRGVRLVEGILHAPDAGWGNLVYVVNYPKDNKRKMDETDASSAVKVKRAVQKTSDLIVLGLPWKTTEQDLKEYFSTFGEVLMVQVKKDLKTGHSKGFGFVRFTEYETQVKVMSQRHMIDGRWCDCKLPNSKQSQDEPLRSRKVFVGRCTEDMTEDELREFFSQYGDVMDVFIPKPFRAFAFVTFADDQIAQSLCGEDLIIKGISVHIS

[3] = biological target: T3, LexA-RRM2 (192-258) (Homo sapiens (species of cDNA not …, UniProt Q13148)); test: as above; details: partners not purified
T3 construct: TDP-43, RRM2, residues 192-258; also called RRM2 bait; source: yeast two-hybrid fusion (L40 yeast)
T3 sequence (Q13148 192-258): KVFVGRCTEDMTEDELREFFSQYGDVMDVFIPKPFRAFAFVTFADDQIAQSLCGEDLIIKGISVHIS

[4] = biological target: T4, LexA-TDP-43 full length (residues 1-414) (Homo sapiens (species of cDNA not …, UniProt Q13148)); test: as above; details: partners not purified
T4 construct: also called TDP-43 bait; source: yeast two-hybrid fusion (L40 yeast, pMicBD1 bait plasmid)
T4 sequence (Q13148 whole entry, the tested form may be a part): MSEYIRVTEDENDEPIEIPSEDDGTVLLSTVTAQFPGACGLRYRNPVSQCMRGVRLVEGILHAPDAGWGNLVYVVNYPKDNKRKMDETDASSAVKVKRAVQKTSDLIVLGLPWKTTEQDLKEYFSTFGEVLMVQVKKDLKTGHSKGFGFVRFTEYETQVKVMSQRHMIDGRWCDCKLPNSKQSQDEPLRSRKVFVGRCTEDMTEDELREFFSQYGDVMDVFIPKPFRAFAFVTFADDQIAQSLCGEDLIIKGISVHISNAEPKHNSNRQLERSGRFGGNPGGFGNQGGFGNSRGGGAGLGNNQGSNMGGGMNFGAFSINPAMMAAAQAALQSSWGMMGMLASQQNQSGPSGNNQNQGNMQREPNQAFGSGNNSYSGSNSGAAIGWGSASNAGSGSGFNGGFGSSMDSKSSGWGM

[5] = biological target: T5, purified RRM1-2 of TDP-43 (tandem RRM domains) (Homo sapiens, UniProt Q13148); test: ELISA; sandwich ELISA; VHH5 coated at 1, 3, 5 and 10 uM in carbonate buffer pH 9.6; TDP-43 fragments (10 ug/ml) added in PBS/BSA 1% pH 7.4, 2 h, room temperature; detected with rabbit anti-TDP-43 polyclonal and HRP secondary antibody; details: both partners purified
T5 construct: TDP-43, tandem RRM1 and RRM2 domains; Production and limits of the purified construct are not described; The docking used PDB 4bs2 (human TDP-43 tandem RRM1-2) as the putative antigen; source: purified

[6] = biological target: T6, purified RRM1 of TDP-43 (Homo sapiens, UniProt Q13148); test: as above; details: both partners purified
T6 construct: TDP-43, RRM1 domain; source: purified

[7] = biological target: T7, purified RRM2 of TDP-43 (Homo sapiens, UniProt Q13148); test: ELISA; indirect ELISA; TDP-43 fragments coated at 1 uM in carbonate buffer pH 9.6; VHH5 added at 1, 3, 5 and 10 uM, 2 h, room temperature; detected with anti-camelid VHH [HRP]; details: both partners purified
T7 construct: TDP-43, RRM2 domain; source: purified
T7 sequence (Q13148 whole entry, looked up, the tested form may be a part): as the sequence (Q13148 whole entry, the tested form may be a part) above

binding result [1]: binds | binding result [2]: binds | binding result [3]: binds | binding result [4]: binds
B1: anti-TDP-43 VHH5 intrabody (VP16 activation domain fusion, prey in pLinker220) (VHH)
VHH: KVQLVESGGGSVQIGGSLRLSCRISEGSGNKYVMAWFRQAPGQEREFVGVISWSGTRTHYADSVRGRFTISRMDNTAYLQMDSLTPDDSGVYYCAASVSVPPFLELTAAHFGSWGQGTQVRVGS
notes: selected from a naive llama VHH SPLINT library; The modelling sections number residues 1-135, with H3 at 94-114; source: yeast two-hybrid fusion (L40 yeast, pLinker220 prey plasmid)

binding result [5]: binds | binding result [6]: binds | binding result [7]: binds
B2: VHH5-I15A_M75K (VHH)
VHH: B1 VHH with I14A, M73K
notes: also called purified VHH5; double mutant; not shown: SUMO, N-terminal, cleaved
